Experimental findings from US6906033 (dated 2005) are described below.

The labels stand for the following.
T1: human factor Xa (human, UniProt P00742 41-179; P00742 235-488)
T1 chain 1: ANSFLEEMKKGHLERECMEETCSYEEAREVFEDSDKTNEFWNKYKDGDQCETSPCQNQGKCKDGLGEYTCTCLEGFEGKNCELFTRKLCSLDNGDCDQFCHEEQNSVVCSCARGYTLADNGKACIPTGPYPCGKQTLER
T1 chain 2: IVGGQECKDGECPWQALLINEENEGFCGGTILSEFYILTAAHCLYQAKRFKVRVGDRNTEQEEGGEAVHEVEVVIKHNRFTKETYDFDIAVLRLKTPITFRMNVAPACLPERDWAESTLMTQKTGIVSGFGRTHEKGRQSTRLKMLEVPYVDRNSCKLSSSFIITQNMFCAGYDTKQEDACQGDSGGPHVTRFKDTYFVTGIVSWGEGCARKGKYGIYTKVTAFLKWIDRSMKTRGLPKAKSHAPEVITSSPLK

T2: human factor XIIa (human, UniProt P00748 20-615, biotinylated with Biotin Ester (Zymed); sites not stated)
T2 chain: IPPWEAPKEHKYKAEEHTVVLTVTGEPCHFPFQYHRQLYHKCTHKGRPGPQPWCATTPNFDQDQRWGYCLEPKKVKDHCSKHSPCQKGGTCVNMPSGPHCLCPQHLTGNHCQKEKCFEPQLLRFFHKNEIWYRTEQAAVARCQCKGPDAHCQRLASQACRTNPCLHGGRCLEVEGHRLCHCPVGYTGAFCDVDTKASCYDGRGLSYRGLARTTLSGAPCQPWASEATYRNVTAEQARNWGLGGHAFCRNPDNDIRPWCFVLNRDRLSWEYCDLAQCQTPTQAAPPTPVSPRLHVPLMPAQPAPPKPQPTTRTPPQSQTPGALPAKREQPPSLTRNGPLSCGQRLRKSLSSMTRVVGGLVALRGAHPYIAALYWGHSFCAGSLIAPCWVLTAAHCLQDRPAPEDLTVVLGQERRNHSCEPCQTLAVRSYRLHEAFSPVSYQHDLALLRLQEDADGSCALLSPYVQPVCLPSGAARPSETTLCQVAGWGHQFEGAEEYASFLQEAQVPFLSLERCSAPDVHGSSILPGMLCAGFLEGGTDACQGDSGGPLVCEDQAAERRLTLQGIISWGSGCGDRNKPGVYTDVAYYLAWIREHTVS

B1: KPI (-4-57) (peptide)
chain: LDKREVVREVCSEQAETGPCRAMISRWYFDVTEGKCAPFFYGGCGGNRNNFDTEEYCMAVCGSAI
B2: DD185 (peptide)
chain: EVVREVCSEQAETGPCRAAIFRWYFDVTEGKCAPFFYGGCGGNRNNFDTEEYCMAVCGSAI
B3: wild-type KPI (-4→57) (peptide)
chain: B1 chain
B4: DD110 (protein)
chain: B2 chain with A19L, F21S
B5: DD108 (protein)
chain: B2 chain with F21S
B6: TW6167 (protein)
chain: B2 chain with T13P, A19M, F21S
B7: DD109 (protein)
chain: B2 chain with A19I, F21S
B8: TW6185 (peptide)
chain: B2 chain with A19M, I20H, F21W
B9: TW6186 (protein)
chain: B2 chain with A19M, I20H, F21S, G41Y
B10: TW6188 (protein)
chain: B2 chain with A19M, F21Y, G41Y
B11: TW6187 (protein)
chain: B2 chain with A19M, G41Y
B12: TW6189 (protein)
chain: B2 chain with A19M, F21W, G41Y
B13: DD113 (protein)
chain: B2 chain with A19L, F21P
B14: TW6169 (protein)
chain: B2 chain with A19L, F21L
B15: TW6190 (protein)
chain: B2 chain with F21S, G41Y

Changes are numbered by the printed parent chain.

One experiment addresses Plasmin. Kind of experiment: enzyme inhibition.
As a reminder, the Ki is the equilibrium dissociation constant of an inhibitor or competing ligand from its target. Read a low Ki as a stronger hold on the target. In turn, B1 came in with an inhibition constant Ki of 34 nM.

Another experiment concerns the target Plasmin. The experiment in a line: enzyme inhibition. The source holds these as a separate data set.
Molecule B2 displayed a Ki of 8.71 nM.

Another experiment concerns the target T1, human factor Xa. Kind of experiment: enzyme inhibition.
B3 gave a Ki of 161 nM.

For the molecule B4, the Ki is 55 nM.

B5 gave an inhibition constant (Ki) of 123 nM.

B6 yielded a Ki of 288 nM.

On to B7, for which the inhibition constant (Ki) worked out at 421 nM.

The target of a further experiment is T2, human factor XIIa. Kind of experiment: enzyme inhibition.
Consider B3, for which the affinity, expressed as Ki, was 3720 nM.

For the molecule B4, the Ki turned out to be 624 nM.

Regarding B5, the inhibition constant (Ki) was 1600 nM. Compared with the last molecule, the Ki is about 2.6-fold higher.

In turn, B6 had a Ki of 3640 nM.

Molecule B7 showed a Ki of 1680 nM.

The target in another experiment is T3, human plasma kallikrein (human, UniProt P03952 20-638). Kind of experiment: enzyme inhibition.
T3 sequence (P03952 20-638): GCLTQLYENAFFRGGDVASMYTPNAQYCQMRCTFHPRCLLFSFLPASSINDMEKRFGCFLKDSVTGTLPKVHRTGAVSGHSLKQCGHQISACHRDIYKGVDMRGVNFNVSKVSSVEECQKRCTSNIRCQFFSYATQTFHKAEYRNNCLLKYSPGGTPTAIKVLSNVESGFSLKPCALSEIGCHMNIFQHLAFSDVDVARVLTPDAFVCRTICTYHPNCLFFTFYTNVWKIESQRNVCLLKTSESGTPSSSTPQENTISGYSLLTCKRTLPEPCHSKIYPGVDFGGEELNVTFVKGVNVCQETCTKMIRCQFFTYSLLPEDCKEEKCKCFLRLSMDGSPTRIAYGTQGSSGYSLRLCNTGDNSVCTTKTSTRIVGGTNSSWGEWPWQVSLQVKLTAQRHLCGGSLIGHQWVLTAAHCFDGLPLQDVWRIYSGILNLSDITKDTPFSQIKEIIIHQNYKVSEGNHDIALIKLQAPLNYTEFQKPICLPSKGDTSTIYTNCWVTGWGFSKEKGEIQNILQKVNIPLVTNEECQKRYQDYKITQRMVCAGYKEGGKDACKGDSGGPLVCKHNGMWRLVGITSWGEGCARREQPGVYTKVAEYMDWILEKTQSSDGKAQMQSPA
In turn, B3 had a Ki of 45 nM.

B4 showed a Ki of 2.1 nM.

B5 showed an inhibition constant Ki of 1.7 nM.

On to B6, for which the inhibition constant Ki was found to be 61 nM.

On to B7, for which the inhibitory constant (Ki) was found to be 9.5 nM.

The next experiment has as its target Plasmin. Kind of experiment: enzyme inhibition. This is another data set of the same source.
In turn, B8 registered a Ki of 18.6 nM.

The target of a further experiment is T1, human factor Xa. The experiment in a line: enzyme inhibition. The source holds these as a separate data set.
B9 gave a Ki of 11 nM. This lies in the double-digit nanomolar range.

B10 returned a Ki of 24 nM.

Take B11: the affinity, expressed as Ki, was 15 nM.

Molecule B12 displayed an inhibition constant (Ki) of 34 nM.

A further experiment deals with T2, human factor XIIa. The experiment in a line: enzyme inhibition. This is another data set of the same source.
Molecule B9 had an inhibition constant Ki of 186 nM.

In the case of B10, the Ki was found to be 419 nM.

B11: affinity was put at a Ki of 92 nM.

Another experiment deals with T3, human plasma kallikrein. Kind of experiment: enzyme inhibition. The source holds these as a separate data set.
In the case of B9, the Ki turned out to be 0.48 nM.

On to B10, for which affinity was put at a Ki of 4 nM.

Take B11: affinity was put at a Ki of 3.8 nM.

For the molecule B12, the affinity corresponds to a Ki of 4 nM.

In the next experiment the target is T3, human plasma kallikrein. The experiment in a line: enzyme inhibition. The source holds these as a separate data set.
In the case of B3, the Ki stood at 45 nM. This lies in the double-digit nanomolar range.

For a further experiment, the target named is T1, human factor Xa. The experiment in a line: enzyme inhibition. The source holds these as a separate data set.
Turning to B13, the inhibition constant (Ki) was found to be 74 nM.

B14 returned an inhibition constant (Ki) of 111 nM.

Regarding B15, the affinity corresponds to a Ki of 1400 nM.

For the next experiment, the target named is T2, human factor XIIa. The experiment in a line: enzyme inhibition. This is another data set of the same source.
With B13, the affinity, expressed as Ki, was 293 nM.

In the case of B14, the Ki was found to be 619 nM. Compared with the last molecule, the Ki is about 2.1-fold higher.

The molecule B15 displayed an inhibition constant Ki of 589 nM.

The next experiment deals with T3, human plasma kallikrein. The experiment in a line: enzyme inhibition. The source holds these as a separate data set.
Molecule B13 returned a Ki of 0.85 nM.

B14 displayed a Ki of 1.2 nM.

Consider B15, for which affinity was put at a Ki of 0.83 nM.
